ELISA signal and rampo value data for 64 molecules are collected here from US20170298096A1 (CANIMGUIDE THERAPEUTICS, published 2017).

No end group written: not given here.

Sequences and labels used below:
B1: P28R S11T (peptide)
peptide: KKLDTFFVKLTLFTER
B2: P28R T14V (peptide)
peptide: KKLDTFFVKLSLFVER
B3: P28R V8E (peptide)
peptide: KKLDTFFEKLSLFTER
B4: P28R T5R (peptide)
peptide: KKLDRFFVKLSLFTER
B5: P28R T14Y (peptide)
peptide: KKLDTFFVKLSLFYER
B6: P28R S11W (peptide)
peptide: KKLDTFFVKLWLFTER
B7: P28R V8L (peptide)
peptide: KKLDTFFLKLSLFTER
B8: P28R T14K (peptide)
peptide: KKLDTFFVKLSLFKER
B9: P28R T5Y (peptide)
peptide: KKLDYFFVKLSLFTER
B10: P28R T5N (peptide)
peptide: KKLDNFFVKLSLFTER
B11: P28R T14F (peptide)
peptide: KKLDTFFVKLSLFFER
B12: P28R T5L (peptide)
peptide: KKLDLFFVKLSLFTER
B13: P28R T14L (peptide)
peptide: KKLDTFFVKLSLFLER
B14: P28R S11Y (peptide)
peptide: KKLDTFFVKLYLFTER
B15: P28R V8I (peptide)
peptide: KKLDTFFIKLSLFTER
B16: P28R T5F (peptide)
peptide: KKLDFFFVKLSLFTER
B17: P28R V8Q (peptide)
peptide: KKLDTFFQKLSLFTER
B18: P28R T5W (peptide)
peptide: KKLDWFFVKLSLFTER
B19: P28R T14E (peptide)
peptide: KKLDTFFVKLSLFEER
B20: P28R T5H (peptide)
peptide: KKLDHFFVKLSLFTER
B21: P28R T5E (peptide)
peptide: KKLDEFFVKLSLFTER
B22: P28R T5I (peptide)
peptide: KKLDIFFVKLSLFTER
B23: P28R T5Q (peptide)
peptide: KKLDQFFVKLSLFTER
B24: P28R T5M (peptide)
peptide: KKLDMFFVKLSLFTER
B25: P28R V8F (peptide)
peptide: KKLDTFFFKLSLFTER
B26: P28R T5K (peptide)
peptide: KKLDKFFVKLSLFTER
B27: P28R T14Q (peptide)
peptide: KKLDTFFVKLSLFQER
B28: P28R T5D (peptide)
peptide: KKLDDFFVKLSLFTER
B29: P28R T5A (peptide)
peptide: KKLDAFFVKLSLFTER
B30: P28R T14R (peptide)
peptide: KKLDTFFVKLSLFRER
B31: P28R V8Y (peptide)
peptide: KKLDTFFYKLSLFTER
B32: P28R V8R (peptide)
peptide: KKLDTFFRKLSLFTER
B33: P28R T14D (peptide)
peptide: KKLDTFFVKLSLFDER
B34: P28R V8A (peptide)
peptide: KKLDTFFAKLSLFTER
B35: P28R T14I (peptide)
peptide: KKLDTFFVKLSLFIER
B36: P28R T14A (peptide)
peptide: KKLDTFFVKLSLFAER
B37: P28R T14H (peptide)
peptide: KKLDTFFVKLSLFHER
B38: P28R S11V (peptide)
peptide: KKLDTFFVKLVLFTER
B39: P28R V8W (peptide)
peptide: KKLDTFFWKLSLFTER
B40: P28R V8K (peptide)
peptide: KKLDTFFKKLSLFTER
notes: also called P27; SCF27
B41: P28R V8S (peptide)
peptide: KKLDTFFSKLSLFTER
B42: P28R T14M (peptide)
peptide: KKLDTFFVKLSLFMER
B43: P28R T14W (peptide)
peptide: KKLDTFFVKLSLFWER
B44: P28R V8M (peptide)
peptide: KKLDTFFMKLSLFTER
B45: P28R T14S (peptide)
peptide: KKLDTFFVKLSLFSER
B46: P28R V8D (peptide)
peptide: KKLDTFFDKLSLFTER
B47: P28R V8H (peptide)
peptide: KKLDTFFHKLSLFTER
B48: P28R V8T (peptide)
peptide: KKLDTFFTKLSLFTER
B49: P28R T14N (peptide)
peptide: KKLDTFFVKLSLFNER
B50: P28R V8N (peptide)
peptide: KKLDTFFNKLSLFTER
B51: P28R T5S (peptide)
peptide: KKLDSFFVKLSLFTER
B52: P28R T5V (peptide)
peptide: KKLDVFFVKLSLFTER
B53: SEQ ID NO 3 (peptide)
peptide: RKLDTFFVKLSLFTER
B54: SEQ ID NO 13 (peptide)
peptide: KKLDTFLVKLSLFTER
B55: SEQ ID NO 8 (peptide)
peptide: KKLDTVFVKLSLFTER
B56: SEQ ID NO 18 (peptide)
peptide: KKLDTFFVKLHLFTER
B57: SEQ ID NO 4 (peptide)
peptide: KKGDTFFVKLSLFTER
B58: SEQ ID NO 17 (peptide)
peptide: KKLDTFFVKLTLFTER
B59: SEQ ID NO 5 (peptide)
peptide: KKEDTFFVKLSLFTER
B60: SEQ ID NO 14 (peptide)
peptide: KKLDTFFVKVSLFTER
B61: SEQ ID NO 6 (peptide)
peptide: KKLDQFFVKLSLFTER
B62: SEQ ID NO 7 (peptide)
peptide: KKLDTAFVKLSLFTER
B63: SEQ ID NO 12 (peptide)
peptide: KKLDTFTVKLSLFTER
B64: SEQ ID NO 11 (peptide)
peptide: KKLDTFVVKLSLFTER

The first test has as its target T1, His-tagged P3028 (human, not fully specified).
T1 construct: the tag is put first after 'PGE73=His-tag-P3028'; also called PGE73; not shown: His-tag
T1 peptide: {His‑tag}-VFDEFKPLVEEPQNLIK
In words: chip ELISA. In general terms: ELISA stands for enzyme-linked immunosorbent assay.
B1 returned an ELISA signal of 520. As to B2, the ELISA signal is 380.

The molecule B3 registered an ELISA signal of 139. Same read-out and setting: the result for B4 reads 430; that for B5, 270; that for B6, 324. The same measure, in the same setting: the value for B7 was 411; that for B8 was 259. For the molecule B9, the ELISA signal amounted to 425. The same measure, in the same setting: the value for B10 was 436; that for B11 was 348; that for B12 was 311. On the same count and under the same terms, the result for B13 reads 360; that for B14, 402. The same measure, in the same setting: the result for B15 reads 401. B16: the ELISA signal worked out at 290.

Molecule B17 registered an ELISA signal of 271. Still for that read-out and setting: the result for B18 reads 418. In the case of B19, the ELISA signal stood at 110. In the case of B20, the ELISA signal was determined as 391. Still for that read-out and setting: the value for B21 was 341; that for B22 was 293; that for B23 was 535. In the case of B24, the ELISA signal worked out at 475. Same read-out and setting: the value for B25 was 358; that for B26 was 237. On the same count and under the same terms, the result for B27 reads 301. Still for that read-out and setting: the result for B28 reads 295; that for B29, 346; that for B30, 264. As to B31, the ELISA signal turned out to be 211. The same measure, in the same setting: the result for B32 reads 365.

Consider B33, for which the ELISA signal stood at 159.

In the case of B34, the ELISA signal worked out at 299.

Take B35: the ELISA signal stood at 375. Still for that read-out and setting: the result for B36 reads 305; that for B37, 463; that for B38, 392. The molecule B39 had an ELISA signal of 228. Still for that read-out and setting: the value for B40 was 253. Still for that read-out and setting: the result for B41 reads 216. As to B42, the ELISA signal amounted to 501.

B43 yielded an ELISA signal of 374.

In turn, B44 gave an ELISA signal of 221.

On to B45, for which the ELISA signal was found to be 369. Same read-out and setting: the value for B46 was 122; that for B47 was 213. On the same count and under the same terms, the result for B48 reads 298.

As for B49, the ELISA signal worked out at 599.

Take B50: the ELISA signal was 203. On the same count and under the same terms, the result for B51 reads 458; that for B52, 374.

Another test deals with T2, His-tagged P3028 (human, also: His-tag, terminus and sequence not given here).
T2 construct: used in solution in the PEPSCAN (rampo) ELISA; also called PGE73; His-tag-P3028; not shown: His tag
T2 peptide: VFDEFKPLVEEPQNLIK
In words: PEPSCAN ELISA (rampo).
Molecule B53 returned a rampo value above 500 rampo units. The molecule B54 registered a rampo value above 500 rampo units. In the case of B55, the rampo value was above 500 rampo units. Still for that read-out and setting: the value for B56 was above 500 rampo units.

As to B57, the rampo value is above 500 rampo units.

B58 gave a rampo value above 500 rampo units. Still for that read-out and setting: the value for B59 was above 500 rampo units; that for B60 was above 500 rampo units; that for B61 was above 500 rampo units. Same read-out and setting: the value for B62 was above 500 rampo units; that for B63 was above 500 rampo units; that for B64 was above 500 rampo units.
